Assay results as given in US20260001928A1 (CORTERIA PHARMACEUTICALS, priority 2022, published 2026).
*1 amine or outer side, *2 acyl side, *3 side chain or, on linkers, in order; H or OH if unused. Where no end group is shown, it is not given here. Side-chain parts run from the residue outwards. [ ]: non-standard residue; d: D form. The star is where a group is joined. C20 diacid = O=C(O)CCCCCCCCCCCCCCCCCCC(=O)*; C18 diacid = O=C(O)CCCCCCCCCCCCCCCCC(=O)*; C16 diacid = O=C(O)CCCCCCCCCCCCCCC(=O)*; γGlu = O=C(O)[C@H](CCC(=O)[*:2])N[*:1]; C14 diacid = O=C(O)CCCCCCCCCCCCC(=O)*; NMeI = CC[C@H](C)[C@H](NC)C(=O)O; Pentanoyl = CCCCC(=O)*; Aib = CC(C)(N)C(=O)O

B1: peptide of SEQ ID NO: 40 (peptide)
peptide: Ac-IVLSLD[dV]PIKLK([γGlu-C16 diacid])KILLEQEKQKKQREQAETN[Aib]QILAQV-NH2
SMILES: CC[C@H](C)[C@H](NC(C)=O)C(=O)N[C@H](C(=O)N[C@@H](CC(C)C)C(=O)N[C@@H](CO)C(=O)N[C@@H](CC(C)C)C(=O)N[C@@H](CC(=O)O)C(=O)N[C@@H](C(=O)N1CCC[C@H]1C(=O)N[C@H](C(=O)N[C@@H](CCCCN)C(=O)N[C@@H](CC(C)C)C(=O)N[C@@H](CCCCNC(=O)CC[C@H](NC(=O)CCCCCCCCCCCCCCC(=O)O)C(=O)O)C(=O)N[C@@H](CCCCN)C(=O)N[C@H](C(=O)N[C@@H](CC(C)C)C(=O)N[C@@H](CC(C)C)C(=O)N[C@@H](CCC(=O)O)C(=O)N[C@@H](CCC(N)=O)C(=O)N[C@@H](CCC(=O)O)C(=O)N[C@@H](CCCCN)C(=O)N[C@@H](CCC(N)=O)C(=O)N[C@@H](CCCCN)C(=O)N[C@@H](CCCCN)C(=O)N[C@@H](CCC(N)=O)C(=O)N[C@@H](CCCNC(=N)N)C(=O)N[C@@H](CCC(=O)O)C(=O)N[C@@H](CCC(N)=O)C(=O)N[C@@H](C)C(=O)N[C@@H](CCC(=O)O)C(=O)N[C@H](C(=O)N[C@@H](CC(N)=O)C(=O)NC(C)(C)C(=O)N[C@@H](CCC(N)=O)C(=O)N[C@H](C(=O)N[C@@H](CC(C)C)C(=O)N[C@@H](C)C(=O)N[C@@H](CCC(N)=O)C(=O)N[C@H](C(N)=O)C(C)C)[C@@H](C)CC)[C@@H](C)O)[C@@H](C)CC)[C@@H](C)CC)C(C)C)C(C)C
B2: peptide of SEQ ID NO: 87 (peptide)
peptide: [NMeI]VLSLD[dV]PIKLK([γGlu-C14 diacid])KILLEQEKQKKQREQAETN[Aib]QILAQV-NH2
B3: peptide of SEQ ID NO: 144 (peptide)
peptide: [NMeI]VLSLD[dV]PIKLK([γGlu-C18 diacid])KILLEQEKQKAQREQAETN[Aib]QILAQV-NH2
modifications: N-terminus assumed
SMILES: CC[C@H](C)[C@H](NC)C(=O)N[C@H](C(=O)N[C@@H](CC(C)C)C(=O)N[C@@H](CO)C(=O)N[C@@H](CC(C)C)C(=O)N[C@@H](CC(=O)O)C(=O)N[C@@H](C(=O)N1CCC[C@H]1C(=O)N[C@H](C(=O)N[C@@H](CCCCN)C(=O)N[C@@H](CC(C)C)C(=O)N[C@@H](CCCCNC(=O)CC[C@H](NC(=O)CCCCCCCCCCCCCCCCC(=O)O)C(=O)O)C(=O)N[C@@H](CCCCN)C(=O)N[C@H](C(=O)N[C@@H](CC(C)C)C(=O)N[C@@H](CC(C)C)C(=O)N[C@@H](CCC(=O)O)C(=O)N[C@@H](CCC(N)=O)C(=O)N[C@@H](CCC(=O)O)C(=O)N[C@@H](CCCCN)C(=O)N[C@@H](CCC(N)=O)C(=O)N[C@@H](CCCCN)C(=O)N[C@@H](C)C(=O)N[C@@H](CCC(N)=O)C(=O)N[C@@H](CCCNC(=N)N)C(=O)N[C@@H](CCC(=O)O)C(=O)N[C@@H](CCC(N)=O)C(=O)N[C@@H](C)C(=O)N[C@@H](CCC(=O)O)C(=O)N[C@H](C(=O)N[C@@H](CC(N)=O)C(=O)NC(C)(C)C(=O)N[C@@H](CCC(N)=O)C(=O)N[C@H](C(=O)N[C@@H](CC(C)C)C(=O)N[C@@H](C)C(=O)N[C@@H](CCC(N)=O)C(=O)N[C@H](C(N)=O)C(C)C)[C@@H](C)CC)[C@@H](C)O)[C@@H](C)CC)[C@@H](C)CC)C(C)C)C(C)C
B4: comparative peptide 11 (SEQ ID NO: 85) (peptide)
peptide: Ac-IVLSLD[dV]PIKLK([γGlu-C14 diacid])KILLEQEKQKKQREQAETNEQILAQV-NH2
B5: peptide of SEQ ID NO: 206 (peptide)
peptide: Ac-IVLSLD[dV]PIKLK([γGlu-C20 diacid])KILLEQEKQKKQREQAETN[Aib]QILAQV-NH2
SMILES: CC[C@H](C)[C@H](NC(C)=O)C(=O)N[C@H](C(=O)N[C@@H](CC(C)C)C(=O)N[C@@H](CO)C(=O)N[C@@H](CC(C)C)C(=O)N[C@@H](CC(=O)O)C(=O)N[C@@H](C(=O)N1CCC[C@H]1C(=O)N[C@H](C(=O)N[C@@H](CCCCN)C(=O)N[C@@H](CC(C)C)C(=O)N[C@@H](CCCCNC(=O)CC[C@H](NC(=O)CCCCCCCCCCCCCCCCCCC(=O)O)C(=O)O)C(=O)N[C@@H](CCCCN)C(=O)N[C@H](C(=O)N[C@@H](CC(C)C)C(=O)N[C@@H](CC(C)C)C(=O)N[C@@H](CCC(=O)O)C(=O)N[C@@H](CCC(N)=O)C(=O)N[C@@H](CCC(=O)O)C(=O)N[C@@H](CCCCN)C(=O)N[C@@H](CCC(N)=O)C(=O)N[C@@H](CCCCN)C(=O)N[C@@H](CCCCN)C(=O)N[C@@H](CCC(N)=O)C(=O)N[C@@H](CCCNC(=N)N)C(=O)N[C@@H](CCC(=O)O)C(=O)N[C@@H](CCC(N)=O)C(=O)N[C@@H](C)C(=O)N[C@@H](CCC(=O)O)C(=O)N[C@H](C(=O)N[C@@H](CC(N)=O)C(=O)NC(C)(C)C(=O)N[C@@H](CCC(N)=O)C(=O)N[C@H](C(=O)N[C@@H](CC(C)C)C(=O)N[C@@H](C)C(=O)N[C@@H](CCC(N)=O)C(=O)N[C@H](C(N)=O)C(C)C)[C@@H](C)CC)[C@@H](C)O)[C@@H](C)CC)[C@@H](C)CC)C(C)C)C(C)C
B6: peptide of SEQ ID NO: 145 (peptide)
peptide: [NMeI]VLSLD[dV]PIKLK([γGlu-C18 diacid])KILLEQEKQK[Aib]QREQAETN[Aib]QILAQV-NH2
modifications: N-terminus assumed
SMILES: CC[C@H](C)[C@H](NC)C(=O)N[C@H](C(=O)N[C@@H](CC(C)C)C(=O)N[C@@H](CO)C(=O)N[C@@H](CC(C)C)C(=O)N[C@@H](CC(=O)O)C(=O)N[C@@H](C(=O)N1CCC[C@H]1C(=O)N[C@H](C(=O)N[C@@H](CCCCN)C(=O)N[C@@H](CC(C)C)C(=O)N[C@@H](CCCCNC(=O)CC[C@H](NC(=O)CCCCCCCCCCCCCCCCC(=O)O)C(=O)O)C(=O)N[C@@H](CCCCN)C(=O)N[C@H](C(=O)N[C@@H](CC(C)C)C(=O)N[C@@H](CC(C)C)C(=O)N[C@@H](CCC(=O)O)C(=O)N[C@@H](CCC(N)=O)C(=O)N[C@@H](CCC(=O)O)C(=O)N[C@@H](CCCCN)C(=O)N[C@@H](CCC(N)=O)C(=O)N[C@@H](CCCCN)C(=O)NC(C)(C)C(=O)N[C@@H](CCC(N)=O)C(=O)N[C@@H](CCCNC(=N)N)C(=O)N[C@@H](CCC(=O)O)C(=O)N[C@@H](CCC(N)=O)C(=O)N[C@@H](C)C(=O)N[C@@H](CCC(=O)O)C(=O)N[C@H](C(=O)N[C@@H](CC(N)=O)C(=O)NC(C)(C)C(=O)N[C@@H](CCC(N)=O)C(=O)N[C@H](C(=O)N[C@@H](CC(C)C)C(=O)N[C@@H](C)C(=O)N[C@@H](CCC(N)=O)C(=O)N[C@H](C(N)=O)C(C)C)[C@@H](C)CC)[C@@H](C)O)[C@@H](C)CC)[C@@H](C)CC)C(C)C)C(C)C
B7: peptide of SEQ ID NO: 215 (peptide)
peptide: [NMeI]VLSLD[dV]PIKLK([γGlu-C20 diacid])KILLEQEKQK[Aib]QREQAETN[Aib]QILAQV-NH2
modifications: N-terminus assumed
SMILES: CC[C@H](C)[C@H](NC)C(=O)N[C@H](C(=O)N[C@@H](CC(C)C)C(=O)N[C@@H](CO)C(=O)N[C@@H](CC(C)C)C(=O)N[C@@H](CC(=O)O)C(=O)N[C@@H](C(=O)N1CCC[C@H]1C(=O)N[C@H](C(=O)N[C@@H](CCCCN)C(=O)N[C@@H](CC(C)C)C(=O)N[C@@H](CCCCNC(=O)CC[C@H](NC(=O)CCCCCCCCCCCCCCCCCCC(=O)O)C(=O)O)C(=O)N[C@@H](CCCCN)C(=O)N[C@H](C(=O)N[C@@H](CC(C)C)C(=O)N[C@@H](CC(C)C)C(=O)N[C@@H](CCC(=O)O)C(=O)N[C@@H](CCC(N)=O)C(=O)N[C@@H](CCC(=O)O)C(=O)N[C@@H](CCCCN)C(=O)N[C@@H](CCC(N)=O)C(=O)N[C@@H](CCCCN)C(=O)NC(C)(C)C(=O)N[C@@H](CCC(N)=O)C(=O)N[C@@H](CCCNC(=N)N)C(=O)N[C@@H](CCC(=O)O)C(=O)N[C@@H](CCC(N)=O)C(=O)N[C@@H](C)C(=O)N[C@@H](CCC(=O)O)C(=O)N[C@H](C(=O)N[C@@H](CC(N)=O)C(=O)NC(C)(C)C(=O)N[C@@H](CCC(N)=O)C(=O)N[C@H](C(=O)N[C@@H](CC(C)C)C(=O)N[C@@H](C)C(=O)N[C@@H](CCC(N)=O)C(=O)N[C@H](C(N)=O)C(C)C)[C@@H](C)CC)[C@@H](C)O)[C@@H](C)CC)[C@@H](C)CC)C(C)C)C(C)C
B8: peptide of SEQ ID NO: 86 (peptide)
peptide: Pentanoyl-VLSLD[dV]PIKLK([γGlu-C14 diacid])KILLEQEKQKKQREQAETN[Aib]QILAQV-NH2
B9: peptide of SEQ ID NO: 189 (peptide)
peptide: Ac-IVLSLD[dV]PIKLK([γGlu-C18 diacid])KILLEQEKQKAQREQAETN[Aib]QILAQV-NH2
SMILES: CC[C@H](C)[C@H](NC(C)=O)C(=O)N[C@H](C(=O)N[C@@H](CC(C)C)C(=O)N[C@@H](CO)C(=O)N[C@@H](CC(C)C)C(=O)N[C@@H](CC(=O)O)C(=O)N[C@@H](C(=O)N1CCC[C@H]1C(=O)N[C@H](C(=O)N[C@@H](CCCCN)C(=O)N[C@@H](CC(C)C)C(=O)N[C@@H](CCCCNC(=O)CC[C@H](NC(=O)CCCCCCCCCCCCCCCCC(=O)O)C(=O)O)C(=O)N[C@@H](CCCCN)C(=O)N[C@H](C(=O)N[C@@H](CC(C)C)C(=O)N[C@@H](CC(C)C)C(=O)N[C@@H](CCC(=O)O)C(=O)N[C@@H](CCC(N)=O)C(=O)N[C@@H](CCC(=O)O)C(=O)N[C@@H](CCCCN)C(=O)N[C@@H](CCC(N)=O)C(=O)N[C@@H](CCCCN)C(=O)N[C@@H](C)C(=O)N[C@@H](CCC(N)=O)C(=O)N[C@@H](CCCNC(=N)N)C(=O)N[C@@H](CCC(=O)O)C(=O)N[C@@H](CCC(N)=O)C(=O)N[C@@H](C)C(=O)N[C@@H](CCC(=O)O)C(=O)N[C@H](C(=O)N[C@@H](CC(N)=O)C(=O)NC(C)(C)C(=O)N[C@@H](CCC(N)=O)C(=O)N[C@H](C(=O)N[C@@H](CC(C)C)C(=O)N[C@@H](C)C(=O)N[C@@H](CCC(N)=O)C(=O)N[C@H](C(N)=O)C(C)C)[C@@H](C)CC)[C@@H](C)O)[C@@H](C)CC)[C@@H](C)CC)C(C)C)C(C)C

These binders were tested against Rat CRF2 a (corticotropin-releasing factor receptor 2), on the A7R5 rat aortic smooth muscle cell line (rat, UniProt P47866 20-411) (assay: cell-based or functional assay).
Chain of Rat CRF2 a (corticotropin-releasing factor receptor 2), on the A7R5 rat aortic smooth muscle cell line (P47866 20-411): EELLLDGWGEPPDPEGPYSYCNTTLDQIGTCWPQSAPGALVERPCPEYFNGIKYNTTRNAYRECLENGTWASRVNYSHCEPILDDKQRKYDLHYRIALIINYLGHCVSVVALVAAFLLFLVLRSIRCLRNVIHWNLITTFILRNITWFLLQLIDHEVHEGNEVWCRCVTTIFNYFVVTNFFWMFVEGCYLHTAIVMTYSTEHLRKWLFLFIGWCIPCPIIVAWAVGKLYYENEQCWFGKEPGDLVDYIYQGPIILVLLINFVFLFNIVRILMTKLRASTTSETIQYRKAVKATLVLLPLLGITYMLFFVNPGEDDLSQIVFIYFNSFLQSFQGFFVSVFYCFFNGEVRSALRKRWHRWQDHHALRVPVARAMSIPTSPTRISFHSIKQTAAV

Binder | EC50 [nM] 0% HSA (cAMP, A7R5 rat aortic smooth muscle cells)
B1 | 0.59 nM
B2 | 0.32 nM
B3 | 0.06 nM
B4 | 1.01 nM
B5 | 0.06 nM
B6 | 0.05 nM
B7 | 0.04 nM
B8 | 0.68 nM
B9 | 0.15 nM
